This data set is described as follows: label from the status in PepcDB records.
As for “MNTMEEKYILSDRGKVYYWIKESNSVFAKNLIFLPGLTANHHLFDFQIQYFSKNHNVLVWDAPAHGKSRPYLDFSYSNLVEELKVILDKQNMKKVVLIGQSAGGFVAQSFIVKYPNMVEGLMMIGTCPYGTDYYSKSDIFWLKQTEWMLKLFPDKLLRNIISKMCGATSEGRRSMLKMLEGYEKKELCHLMYLGFAGFIPEIQDLNIHCPVCLVVGDKDKTGKVRKYNEQWHNKTGYPLHIIKNASHNVNVDKPNELNQIMDIFIKQLN”, the protein production entry is on record as “not failed”.
On to “MKPLEQAINDNKKKKRFNFRMPGAFMILFILTVVAVIATWIIPAGAYSKLSYEPSSQELKIVNPHHQVKKVPGTQKELDRLGVKIKIEQFKSGAINKPVSIPNTYERLKQHPAGLDQITSSMVKGTIEAVDIMVFILVLGGLIGVVQASGSFESGLLALTQKTKGHEFMLIAFVSILMIIGGTLCGIEEEAVAFYPVLVPIFIALGYDSIVSVGAIFLASSVGSTFSTINPFSVVIASNAAGTTFTDGLYWRIGACIIGAIFVISYLFWYCKKIKKDPKSSYSYEDKAAFEKQWSVLHDDGSSEFTLRKKIILTLFVLPFPIMVWGVMTQGWWFPVMASVFLIFTIIIMFIAGTGQYGLGEKGTVDAFVNGASSLVGVSLIIGLARGINLVLNKGMISDTILHFSSSIVQHMSGPLFIIVLLFIFFCLGFIVPSSSGLAVLSMPIFAPLADTVGIPRFVIVTTYQFGQYAMLFLAPTGLVMATLQMLNMRYSHWLRFVWPVVAFVLIFGGGLLITQVLIYS”, for which the protein production entry is “failed”.
Turning to “MEKANIGFKAGIIFEKLGETGLITIAELARRLNFAADETALAAGWLARENKIYIERRNGLLYIRKELEHHHHHH”, the protein production entry is on record as “failed”.
Turning to “GSAQEEQSANEVAVSYSKSLKAAEMDSLQLPVDADGYITIFDGKTFNGWRGYGKDRVPSKWTIEDGCIKFNGSGGGEAQDGDGGDLIFAHKFKNFELEMEWKVSKGGNSGIFYLAQEVTSKDKDGNDVLEPIYISAPEYQVLDNDNHPDAKLGKDNNRQSASLYDMIPAVPQNAKPFGEWNKAKIMVYKGTVVHGQNDENVLEYHLWTKQWTDLLQASKFSQDKWPLAFELLNNCGGENHEGFIGMQDHGDDVWFRNIRVKVLD”, the protein production entry is reported as “not failed”.
Under “MLMQYRDLAKNIIKIYQKHGRDWTQLRGDFLHEKIWLDRFLGLLPMSAKVLDLGCGSGTPIAKYLIEQGCQLTGVDTSEVMLDMAQQNFPEQIWINADIRQFSTEQTFDGILAWDSFFHLDPENQRQMFAQFSTHAASGGVLMFTSGPSYGEAIGDMFGGPLYHASLDAAEYRTLLAQYGFETIKMIAEDPECTGHTVWLARKK” stands “failed”; under “MHTLNLGILAHVDAGKTSLTERLLHTVGVIDEIGSVDEGNTQTDSLALERQRGITIKSAVVSFAINDTTVNLIDTPGHPDFIAEVERVLSVLDGAVLVVSAVEGVQAQTRVLLRTLQRLRIPTLLFVNKIDRGGAGEERVLRAIAARLTPAIVPMGRAAGPGSRDARFIPYEAHDPGFGARLLDVLTEHDEELLAAYVKDTVSYGRLRTALVEQTRQALVHPVFFGSATTGAGVPELIAGIKELLPAAEGDPDGPVSGTVFKVERGPAGEKIAYARLFSGTVRTRDRLLFRDGEEGKVTAISVFDQGSAVREASVAAGRIGKLWGLAEIRIGDTFGEVPKAAEPSRHFSPPTLETVVVPGGRSDGGALHLALTQLAEQDPLINMRQDEIRREISLSLYGEVQKEVIQATLADAFGLDVTFRETTPICVERPVGTGAAVEFNGKGPHPFLATVGLRVEAAPVGSGVEFRLEVELGAMPYAFFKAVEDTVRETLGQGIHGWRVTDCTVTMTHSGYSPRQSHAHQGFDKSMSSTGADFRGLTPLVLMDALRQAGTRVHEPLHRFGLEAPADTLGAVLPVLAGLRAVVRTTRMREAVCVLEGLVPAAHVHELGQVLPGLTRGEGELETAFDHYAPVAGGTVPNRPRTDHNPLDRKEYLLNVTRRVGT”, “failed”; under “MRTIWLVFIANFKRAYSNKKKFFINLLVPVAAIILAIVVNYVSSPSLNIGVNEKIKSKGGDRIVKMLKHTRGINAKVCHGELMKTEVILGKYDAVVTIKRKLGKNSFNNMSKYFEFYNVRDKKTNEDMKKLIKAYLVQNKTLNMERIVKDEQIGGLSKSERIIAFLATVLLITSVVNGAVIIRDREENTYYRYMYSPNSKFEYIFGNVIYNYIFSYIQLFIANSLMAIFGIYIGISFLKMLSYGLILTLVMTTFGTFIVCIFNKELYANMFSAAISLILSLVGGTFINYKIMPEGLRRISDVTPNRWIIKSVQYMQNGRFGSINPMMVLIAFSIMFSLAAVLVSKFHKVQFK”, “failed”.
Consider “MTNGKNPKEYSRQYVDEIAERADVVGYAPAIEYSFDRYTNNPVHEKIATIHDGEKLGDDAHVEVVVVDFFKKSDKGDKCYATKRTYAVIPDSDGDGTDALVYSGSLKSVSDIEEGYVTETDFTSKTVTYAKGDYAATELEHHHHHH”, for which the protein production result is “failed”.
With “MDTLAYLHLAETYETSTTDESSPEIPWTKNQSSALMLVASFAMGSLNWCLPTVAALKKGHRNPQVASLQQKLRASGYFPQVATGYFGSVTEAAVKRFQQANGLKADGIVGAATLAALESSIGVSESSITDPQIATSKSSLKQGDISDRVMSLQEKLQADGYYQGAITGNFDAATQAAVIQFQQANRLVVDGIVGPQTSSVLASSTRKLAASLPQKTTLEPFLTQQPQNQVKISPQSAAPPSPSQKMRLIKTISGKISPKSVVYSGNGLFFAQNMMYNHTITVYDRNYELVKVIPDEVDLSKYGHSRFKGKYRGAPVEASFSHNGKYAWISNYQMYGPGFNNPGSDKCHPSQKTDKSFLYRINTETLKIDRVIPVGSVPKFVATSTDENLILVSNWCSWDLSVVDINQNQEIKRIKLGPYPRGIVVDPASETAYVAVMGSYNIAKVNLRDFSVQWLRNIGSSPRHLNIDPAGKYLYASLNGEGKIAKISLPQGNLVKKIATGNAPRSMVLSANGQTLYVVNYGEDTVSKVRTSDMKVLQKVKVEPDPIGITYDPQTREVWVACYSGNIMIFQD”, the protein production result is on record as “failed”.
In the case of “MNITVNDRECSAQVGDRLLDIARANHSHIGYFCGGNAICQTCYVRVLEGAELLSPMSDAEKAMLSDKLIKEGTRMACQTLIEKPGKITVLSEVEAAKRLTLENPLEHHHHHH”, the protein production result is listed as “not failed”.
In the case of “MLKKMSPSDWRPFYVSIARNMTNGIRGSIGGRLASWACLFQVTCGVAMKMPTLLSVSLLAALSLPAAAQTAPPQDVPFDGTLKIDVDATDLAHRIFKVNITMPAKPGPMTLLYPQWIPGDHSPTGPIDKLAGLVIKVDGKVVPWKRDQFDVYAFKVDVPQGATELTAEFKFLSPQAGNQGRVMMTPEMLNLQWNTTALYPAGYVVRNIKVQASVTLPAGWSYATALETDRRVGDTVSFKPIDFDDLVDSPMFAGKYYKRVELSTGKQPVYLNVFADEAKSLEAKPEQIKAHAALVQQMDKLYGARHFDHYEFLLALTKKLGGIGLEHHRSSENSGPPNYFTEWDKSWTMRDLLAHEFNHSWNGKYRRGADLSTPNFNVPMGDSLLWLYEGQTQFWGEVLAARSGLWTQDQARDMLAGVAATYERGRPGMTWRTLQDTTNDPTMSMRRSKPYRSYQMSEDYYSGAQMMWLEVDSKLRALTNNKRSIDDFAKAFFGMKNGDWDVNPYTFDDIVSTLNGVAAYDWASLLRERMDGHGSLNGGIEANGWKLVYNDEPNLAIKTYESNKNDVSLTYSLGLSLEGSGEVSEVLWDSPAFNAGIINGNSIVAVNGRAFSADVIKDAIKAAKGTAAPIELLVKRGDRYETVRIDYHGGLLYPHLERIAGKPDRLGELYKAR”, the protein production result was “failed”.
As to “MEELLDILREFRDSRGWLKYHTPKNLAVSISIEVAELLEIFQWTRSSDEEFEVLERRKGEVEEEIADVLIYLLFLCDVAEINPIEAVKRKMEKNERKYPKNRVHEF”, the protein production result is reported as “not failed”.
Under “MPDIAVLVKASLNPDMARIGPDDSVDLNSIPLKISDIDRNAVEEAVKLKEKLGGKLYAVSVLTWGPVKLRNKDLRLAVQEALAKGVDEAIVVADDELTPGDQTTTAKAIKAALEKHGVKPELILAGEATIDEVTSQVPGRLASLLGYKYLSFVRKLDVDNGRIIAERDLEDYIEVVEASLPAVVSVTQEINEPRPPTLLQIRRAARKPVKEYSASELENVGKPVRRIVQIRGVQVKRKQQIIEGDNLEEIAEKLIEALAREGVLKL” stands “failed”; under “MGMLTDVALKALKPKEKIYKIADRDGIYVRVMPSGAISFRLDYRLNGRRETIYLGRYGRDGISLALAREKCLDAKRAIGEGRSPAIEKQRDKRRLKEAKSFGEFGEKWLTAAPMADSTRAMRRAIFERELLPVWRNRLLTEITPDDLRTHCGAIVERGAPATAIHVRDILKQIYGFAILHGEKVANPADEVGPASIATFVPKDRSLSPSEIRVMLKQLEHVATIPTIRLGMRLYLLTMVRKSELQDAVWDEVDFENAVWTIPKERMKRSKAHNVYLSRQALDIMIALKTCAGNSRYLLPSRYDADAPMSRATFNRITYAVVERAKANGLPLEPFTVHDLRRTGSTLLNELGFNSDWIEKCLAHEDGRSSRGVYNKAEYEVQRRHMMQEWSDIVDAWVGGKKHVPTLIPPSMPILAPDPAL”, “failed”.
In the case of “MVEADRPGKLFIGGLNTETNEKALEAVFGKYGRIVEVLLMKDRETNKSRGFAFVTFESPADAKDAARDMNGKSLDGKAIKVEQATKPSFE”, the protein production result was “failed”.
Take “MIIPTVPTTDELLDKGFRRARKAASLKRSSKIPGQKKAKVIESTRVQTACQVIRDRLKMIIQRIPDIESLPEFYQDYIDVTVGVDELKKSLGALNWAVGILNQLESDYMARIKRSKPSDASHLRREAFGRISSVIKRIEGDLDFLDFAKNKLRNMPTVDLDAFTVVIAGFPNVGKSTLLRTLTGAEPEVADYPFTTKGIQIGHLERKWKRIQVIDTPGLLDRPVEDMNNIELQAMVALENIADVIMFIFDASETCGYTLESQYSLYLGIRSVFDIPVVTVFNKMDLAENVKYLEEYINMVEDPLKVSAFEGRGVSKIIKKLEGLYEKETREAHDNV”: the protein production result was “failed”.
Under “MDLNNNKSNNIVKTLARWCLLLQAFMISSNTVALKEPDYVNMNITIRNSMTGLIRPEIVYRCQSKRKDYGWHRSPKPGVQFSFPIILIKGETKIPAIHICQIRSVLGTATLVIQNTYLDAEMCPRSSCAHEATPKGIVFRGLEWDFKTVFPKLKPVEYLELPWTPWPNRT” stands “failed”; under “MVWGKGLARRLYGLTGVVWSKYLDIDERGRLIVKLKGYKIDIAKLVSDKQLPGAHIRILPIIRYMMDQVYEAFMEAFRKFGYKGAFKPVYPLKSNSTPIVVDTIWRYGIKYSWGFNAGTYPEVKLISKYINEKPRLLVVDGIKDNKLLDLLSKMCDSWEIIVDIESMRDADLLSKYQDLNIGLRVKVTSKSSGLWSHSSGLDSKFGLLINTLDEMVEKHPWVPNRTVLLHVHAGSQITDKNRLEDIIRETIILYNNLVKTGFKNIRYIDFGGGLAYPYIEASNHVFSANYSLNEYAEILVKELVKSAENTPDIVFEGGRYIVAPHRITVTKIIDTRPYSTSDRGETSYPIVEEIKNTENIKELVYVSRKAREVITRLMLKFPINIESRRILEKLLTSINEAITSKAYEIIHRDNDKALEELIKTPNYVLEELVSPTRRFFASFSLFSHLPDTIIADQYFKIIPLQRLNEKPEVLGVISDLTCDSMGEYSSFITFLPNNIEYETEDLFTSLDHKLMFIPGKTLRLKGVPLHIPRKNEDYYIAFLDTGAYQDMLSMNHNLLNGYPEIIIDIINDNLKIIYENLESAENYPL”, “failed”.
As for “MTTATSERQKTLLFKAAERQWKEEFAGKETDIRKVDCNIYKGILYQLEIRQVFLDTSLSLKKLSALLETNQTYLSNVVNKYFGCNLKELVNTYRVEYAKELLCSRRCALTELPCSCGFASKSAFYSAFSRIVGVSPLSYQTQERRLEHHHHHH”, the entry is “not failed”.
